# In US20200031866A1, “PEPTIDE INHIBITORS OF SODIUM CHANNELS” (SPYRYX BIOSCIENCES, INC., priority 2016, published 2020):
# Entries after “also recorded” stand apart in the source; their conditions may differ. Square brackets hold non-standard residues; d marks the D form. Ends that are not written are not given here. Peptide text beside a SMILES is read from it. Nle = CCCC[C@H](N)C(=O)O
# Key:
# ENaC [1] = target: T1, ENaC (Homo sapiens, UniProt P37088+P51168+P51170); assay: Airway surface liquid (ASL) height in human bronchial epithelial cultures by XZ-confocal microscopy; type: cell-based; settings: FIGS. 3A, 3B; for potency compared to S18 (dose response): 4
# T1 construct: Peptides were added mucosally to HBECs at 30 μM and ASL height measured 3 h later by XZ-confocal microscopy; endogenous in cells; host or cells: primary human bronchial epithelial cultures (HBECs) at air-liquid interface
# T1 sequence (P37088 1-669): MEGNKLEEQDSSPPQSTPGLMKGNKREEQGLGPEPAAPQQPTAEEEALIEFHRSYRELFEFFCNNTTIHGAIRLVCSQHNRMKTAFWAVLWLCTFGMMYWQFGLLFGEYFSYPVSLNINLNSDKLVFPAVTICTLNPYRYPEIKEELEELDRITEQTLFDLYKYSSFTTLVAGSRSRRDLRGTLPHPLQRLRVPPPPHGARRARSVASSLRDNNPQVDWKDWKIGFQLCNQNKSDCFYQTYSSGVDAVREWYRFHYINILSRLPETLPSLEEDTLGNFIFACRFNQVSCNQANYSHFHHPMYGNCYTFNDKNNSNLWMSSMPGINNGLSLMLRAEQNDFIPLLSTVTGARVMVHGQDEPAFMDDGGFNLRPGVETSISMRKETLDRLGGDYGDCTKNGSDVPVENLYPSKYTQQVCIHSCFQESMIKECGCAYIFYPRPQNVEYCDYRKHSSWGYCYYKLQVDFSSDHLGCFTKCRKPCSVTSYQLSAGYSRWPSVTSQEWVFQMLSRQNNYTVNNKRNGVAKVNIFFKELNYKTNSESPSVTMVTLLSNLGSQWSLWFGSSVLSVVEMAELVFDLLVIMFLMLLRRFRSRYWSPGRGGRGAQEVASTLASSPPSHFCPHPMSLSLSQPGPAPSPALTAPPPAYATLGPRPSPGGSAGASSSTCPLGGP
# T1 sequence (P51168 1-640): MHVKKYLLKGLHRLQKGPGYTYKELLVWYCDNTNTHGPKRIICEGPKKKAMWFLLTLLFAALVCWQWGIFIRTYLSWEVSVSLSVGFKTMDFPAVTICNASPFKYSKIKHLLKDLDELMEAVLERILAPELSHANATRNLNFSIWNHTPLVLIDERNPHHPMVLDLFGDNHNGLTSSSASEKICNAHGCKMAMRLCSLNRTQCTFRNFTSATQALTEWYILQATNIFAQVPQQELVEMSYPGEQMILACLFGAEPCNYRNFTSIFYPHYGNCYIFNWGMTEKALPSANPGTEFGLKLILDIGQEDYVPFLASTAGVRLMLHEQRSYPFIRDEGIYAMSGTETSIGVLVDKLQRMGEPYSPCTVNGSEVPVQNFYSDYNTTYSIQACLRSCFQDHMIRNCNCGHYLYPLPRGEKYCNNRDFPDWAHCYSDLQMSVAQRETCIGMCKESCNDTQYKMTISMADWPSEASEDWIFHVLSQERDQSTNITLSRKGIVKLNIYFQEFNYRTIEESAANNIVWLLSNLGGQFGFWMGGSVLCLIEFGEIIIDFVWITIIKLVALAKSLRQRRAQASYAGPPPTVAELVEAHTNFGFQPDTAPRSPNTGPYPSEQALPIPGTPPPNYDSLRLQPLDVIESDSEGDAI
# T1 sequence (P51170 1-649): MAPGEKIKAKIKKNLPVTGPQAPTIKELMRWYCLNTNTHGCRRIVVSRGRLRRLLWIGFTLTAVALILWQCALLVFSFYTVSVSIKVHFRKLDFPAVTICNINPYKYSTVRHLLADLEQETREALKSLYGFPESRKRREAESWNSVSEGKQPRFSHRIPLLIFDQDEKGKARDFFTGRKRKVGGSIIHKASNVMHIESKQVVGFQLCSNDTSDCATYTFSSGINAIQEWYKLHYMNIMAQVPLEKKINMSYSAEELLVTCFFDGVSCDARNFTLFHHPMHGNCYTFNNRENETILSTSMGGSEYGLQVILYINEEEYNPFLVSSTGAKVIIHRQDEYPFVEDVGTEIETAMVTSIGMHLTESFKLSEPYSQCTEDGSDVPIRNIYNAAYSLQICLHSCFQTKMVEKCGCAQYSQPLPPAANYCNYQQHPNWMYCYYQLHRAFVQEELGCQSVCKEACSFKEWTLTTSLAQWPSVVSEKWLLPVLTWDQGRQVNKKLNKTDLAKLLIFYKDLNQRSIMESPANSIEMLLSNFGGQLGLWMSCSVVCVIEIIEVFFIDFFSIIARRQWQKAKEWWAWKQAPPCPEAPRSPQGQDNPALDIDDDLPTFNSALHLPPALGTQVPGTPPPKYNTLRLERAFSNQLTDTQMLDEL
# ENaC [2] = target: T1, ENaC; assay: as above; type: cell-based; settings: peptides added mucosally to HBECs at 30 μM, ASL height measured 3 h later; FIGS. 2A-2B
# From the text: Cells were harvested by enzymatic digestion from human bronchial tissue as previously described under a protocol approved by the UNC School of Medicine IRB (Tarran et al., J. Gen. Physiol. 127:591 (2006)). Human excess donor lungs and excised recipient lungs were obtained at the time of lung transplantation from portions of main stem or […] bronchi and cells were harvested by enzymatic digestion. All preparations were maintained at an air-liquid interface in a modified bronchial epithelial medium and used 2-5 weeks after seeding on 12 mm T-Clear inserts (Corning Costar) coated with human placental type VI collagen (Sigma). Phosphate buffered saline (PBS) was used for washing human bronchial epithelial culture mucosal surfaces.
# To label airway surface liquid, Ringer containing rhodamine-dextran (2 mg/ml; Invitrogen) was added to human bronchial epithelial culture mucosal surfaces. […] 10 points per culture were scanned and an average airway surface liquid height determined. […]
# To confirm our alanine-scan data, we made a peptide of subsequence A (LPVPLDQT (SEQ ID NO:113); FIG. 1). […] Peptides were added mucosally to HBECs at 30 μM and ASL height measured 3 h later by XZ-confocal microscopy. […]
# proteases = type: in vitro ADME
# alpha-ENaC = target: T2, alpha-ENaC (Homo sapiens, UniProt P37088+P51168+P51170); assay: Internalization of alpha-ENaC in HEK293T cells, GFP-tagged alpha-ENaC co-expressed with beta and gamma ENaC; type: cell-based; settings: beta-ENaC co-expressed, FIGS. 5A-5U
# T2 construct: expressed in transfected cells; host or cells: HEK293T
# T2 sequence (P37088 1-669): T1 sequence (P37088 1-669)
# T2 sequence (P51168 1-640): T1 sequence (P51168 1-640)
# T2 sequence (P51170 1-649): T1 sequence (P51170 1-649)
# From the text: HEK293T cells were transfected with gfp-αENaC where gfp was fused at the N-terminus of ENaC and unlabeled βENaC and γENaC using lipofectamine in 384 well plates as per the manufacturer's instructions and as published previously (see, e.g., Hobbs et al. Am J Physiol Lung Cell Mol Physiol. 2013 December; 305(12):L990-L1001. doi: 10.1152/ajplung.00103.2013. Epub 2013 October; Garland et al. Proc Natl Acad Sci USA. 2013 Oct. 1; 110(40):15973-8. doi: 10.1073/pnas.1311999110. Epub 2013 Sep. 16.; Tan et al. J Physiol. 2014 Dec. 1; 592(Pt 23):5251-68). Twenty-four hours later, peptide or vehicle control were added at t=0 and fluorescence was read using a Tecan M1000 plate reader 3 h later. Fluorescence was read at 488 nm (excitation)/510 nm (emission).
# βENaC-Tg mice = type: in vivo; settings: βENaC-Tg C57BL:C3H mice, fourteen-day treatment; FIGS. 7C, 7D, 7F
# From the text: Like CF patients, βENaC-Tg mice are disease free at birth, but soon develop obstructive lung disease (Zhou, Z., et al. Am J Respir Crit Care Med 178, 1245-1256 (2008)). C57BL:FVB and C57BL:C3H mixed strains have 90% and 50% mortality, respectively, and the reproducibility of the disease on these backgrounds is sufficiently high that reliable data are produced with n of about 8-10 animals/group. Furthermore, the βENaC-Tg mouse responds to therapeutic interventions in a fashion similar to CF/COPD in humans, and the development of lung disease can be prevented following inhibition of lung disease at birth (Livraghi, A., et al. J Immunol 182, 4357-4367 (2009)). S18-derived peptides or vehicle were dosed one to three times a day by intranasal instillation (1 μl/g body weight) for 14 days in parallel cohorts of mice. Mice were weighed daily and, if a diuretic effect was found, the volume excreted was replaced by sub-cutaneous injections of sterile saline. At the end of the treatment, mice were sacrificed for phenotypic analysis.
Compound,efficacy compared to S18 (dose response) (ENaC [1]),potency compared to S18 (dose response) (ENaC [1]),also measured
"aaLPVPLDQTLPLNVNPaa ([dA][dA]LPVPLDQTLPLNVNP[dA][dA]-NH2; N-terminus assumed; SMILES CC(C)C[C@H](NC(=O)[C@@H]1CCCN1C(=O)[C@H](CC(C)C)NC(=O)[C@@H](NC(=O)[C@H](CCC(N)=O)NC(=O)[C@H](CC(=O)O)NC(=O)[C@H](CC(C)C)NC(=O)[C@@H]1CCCN1C(=O)[C@@H](NC(=O)[C@@H]1CCCN1C(=O)[C@H](CC(C)C)NC(=O)[C@@H](C)NC(=O)[C@@H](C)N)C(C)C)[C@@H](C)O)C(=O)N[C@@H](CC(N)=O)C(=O)N[C@H](C(=O)N[C@@H](CC(N)=O)C(=O)N1CCC[C@H]1C(=O)N[C@H](C)C(=O)N[C@H](C)C(N)=O)C(C)C) [SEQ ID NO:2, a = D-alanine]",equal,equal,–
aaLPVPNleDQTaa [SEQ ID NO:6],diminished,–,–
"aaLPVPLDQTaa ([dA][dA]LPVPLDQT[dA][dA]-NH2; N-terminus assumed; SMILES CC(C)C[C@H](NC(=O)[C@@H]1CCCN1C(=O)[C@@H](NC(=O)[C@@H]1CCCN1C(=O)[C@H](CC(C)C)NC(=O)[C@@H](C)NC(=O)[C@@H](C)N)C(C)C)C(=O)N[C@@H](CC(=O)O)C(=O)N[C@@H](CCC(N)=O)C(=O)N[C@H](C(=O)N[C@H](C)C(=O)N[C@H](C)C(N)=O)[C@@H](C)O) [SEQ ID NO:3, a = D-alanine]",identical dose responses; also recorded: equal,identical dose responses; also recorded: equal,–
"H-LPVPLDQT-NH2 [SEQ ID NO:113, LPVPLDQT]",–,–,activity on ASL height / inhibition of ENaC compared with S18 (ENaC [2]): retained similar activity to S18; also recorded: required for inhibition of ENaC and preservation of ASL height; susceptibility to proteolytic degradation (proteases): more susceptible to proteolytic degradation
N=C(N)NC(=O)c1nc(Cl)c(N)nc1N [amiloride],–,–,reduction of alpha-ENaC / functional receptor on the cell surface (alpha-ENaC): does not reduce the amount of functional receptor on the surface of cells
aaLPVPLDQSaa ([dA][dA]LPVPLDQS[dA][dA]-NH2; N-terminus assumed; SMILES CC(C)C[C@H](NC(=O)[C@@H]1CCCN1C(=O)[C@@H](NC(=O)[C@@H]1CCCN1C(=O)[C@H](CC(C)C)NC(=O)[C@@H](C)NC(=O)[C@@H](C)N)C(C)C)C(=O)N[C@@H](CC(=O)O)C(=O)N[C@@H](CCC(N)=O)C(=O)N[C@@H](CO)C(=O)N[C@H](C)C(=O)N[C@H](C)C(N)=O) [SEQ ID NO:9],–,diminished,–
SEQ ID NO:127: NH3-LPIPLDQT-NH2 (H-LPIPLDQT-NH2),–,–,percent survival (βENaC-Tg mice): increased percent survival
"CCCC[C@H](NC(=O)[C@@H]1CCCN1C(=O)[C@H](CC(C)C)NC(=O)[C@@H](C)NC(=O)[C@@H](C)N)C(=O)N1CCC[C@H]1C(=O)N[C@@H](CC(C)C)C(=O)N[C@@H](CC(=O)O)C(=O)N[C@@H](CCC(N)=O)C(=O)N[C@H](C(=O)N[C@H](C)C(=O)N[C@H](C)C(N)=O)[C@@H](C)O [SEQ ID NO:5, aaLPNlePLDQTaa] (H-[dA][dA]LP[Nle]PLDQT[dA][dA]-NH2; N-terminus assumed)",–,log-fold increase in potency; also recorded: significant increase in potency; also recorded: increased potency,–
"DQTLPLNVNP (not fully specified) [SEQ ID NO:114, NH3-…-NH2, overlapping control peptide of S18]",–,–,activity on ASL height / inhibition of ENaC compared with S18 (ENaC [2]): inactive
